Experimental data as given in publication PMC7515719, “The crystal structure of human XPG, the xeroderma pigmentosum group G endonuclease, provides insight into nucleotide excision DNA repair”.

Tests used:
XPGn1 D812A = biological target: T1, XPGn1 D812A (Homo sapiens, UniProt P28715 1-112+=GT+750-990, D812A;internal_change); test: crystal structure; C1, space group I422, one complex per ASU; EMSA: 2.5 uM DNA, 1-8 uM protein, buffer H (composition not in material) + 15% glycerol, 25 C, 30 min, 7% native PAGE; crystals: complex in 20 mM Tris pH 7.5, 100 mM KCl, grown in 5% PEG 3350, 50 mM sodium citrate pH 4.0, 22 C; conditions: protein: recombinant; tags: N-terminal His-3C cleaved, leaves Gly-Pro-His before Met1; fork: 10 bp duplex, 1 nt 5' arm (strand 1), 1 nt 3' arm (strand 2)
T1 sequence: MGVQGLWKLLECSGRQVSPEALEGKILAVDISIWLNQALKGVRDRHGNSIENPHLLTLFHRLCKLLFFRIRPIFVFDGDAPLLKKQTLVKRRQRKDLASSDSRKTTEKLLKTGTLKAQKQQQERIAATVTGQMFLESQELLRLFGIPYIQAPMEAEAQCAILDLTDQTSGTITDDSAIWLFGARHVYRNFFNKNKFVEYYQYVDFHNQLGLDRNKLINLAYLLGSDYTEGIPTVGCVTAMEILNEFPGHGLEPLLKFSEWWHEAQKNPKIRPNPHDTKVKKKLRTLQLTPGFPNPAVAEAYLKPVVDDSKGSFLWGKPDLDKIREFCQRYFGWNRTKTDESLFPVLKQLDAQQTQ

XPGn3 K917E = biological target: T2, XPGn3 K917E (Homo sapiens, UniProt P28715 2-112+=GT+750-990, K917E;internal_change); test: EMSA; minimal or null effect; EMSA: 2.5 uM DNA, 1-8 uM protein, buffer H (composition not in material) + 15% glycerol, 25 C, 30 min, 7% native PAGE; crystals: complex in 20 mM Tris pH 7.5, 100 mM KCl, grown in 5% PEG 3350, 50 mM sodium citrate pH 4.0, 22 C; conditions: protein: recombinant; tags: N-terminal His-TEV cleaved; fork: 12 bp duplex, 4 nt 5' arm (strand 1), 5 nt 3' arm (strand 2)
T2 sequence: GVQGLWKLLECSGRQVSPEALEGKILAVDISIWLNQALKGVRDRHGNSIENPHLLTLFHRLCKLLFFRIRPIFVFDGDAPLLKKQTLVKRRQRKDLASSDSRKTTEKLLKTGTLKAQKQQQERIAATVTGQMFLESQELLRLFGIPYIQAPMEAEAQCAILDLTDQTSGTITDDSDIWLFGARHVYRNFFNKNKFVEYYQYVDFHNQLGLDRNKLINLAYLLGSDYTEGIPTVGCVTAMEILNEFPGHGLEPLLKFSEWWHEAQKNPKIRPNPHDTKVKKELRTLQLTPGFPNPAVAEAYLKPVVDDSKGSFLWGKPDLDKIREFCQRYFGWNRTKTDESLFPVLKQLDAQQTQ

XPGn3 K916A = biological target: T3, XPGn3 K916A (Homo sapiens, UniProt P28715 2-112+=GT+750-990, K916A;internal_change); test: as above; conditions: protein: recombinant; tags: N-terminal His-TEV cleaved; fork: 12 bp duplex, 4 nt 5' arm (strand 1), 5 nt 3' arm (strand 2)
T3 sequence: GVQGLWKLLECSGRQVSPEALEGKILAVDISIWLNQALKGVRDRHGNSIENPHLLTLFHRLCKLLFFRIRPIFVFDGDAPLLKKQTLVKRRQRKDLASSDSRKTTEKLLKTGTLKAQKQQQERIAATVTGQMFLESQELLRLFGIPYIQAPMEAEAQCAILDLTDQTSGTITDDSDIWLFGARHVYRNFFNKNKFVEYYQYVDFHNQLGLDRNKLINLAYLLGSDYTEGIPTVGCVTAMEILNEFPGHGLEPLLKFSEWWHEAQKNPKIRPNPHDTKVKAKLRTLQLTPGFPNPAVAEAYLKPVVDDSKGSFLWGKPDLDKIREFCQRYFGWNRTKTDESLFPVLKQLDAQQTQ

XPGn3 K913A = biological target: T4, XPGn3 K913A (Homo sapiens, UniProt P28715 2-112+=GT+750-990, K913A;internal_change); test: as above; conditions: protein: recombinant; tags: N-terminal His-TEV cleaved; fork: 12 bp duplex, 4 nt 5' arm (strand 1), 5 nt 3' arm (strand 2)
T4 sequence: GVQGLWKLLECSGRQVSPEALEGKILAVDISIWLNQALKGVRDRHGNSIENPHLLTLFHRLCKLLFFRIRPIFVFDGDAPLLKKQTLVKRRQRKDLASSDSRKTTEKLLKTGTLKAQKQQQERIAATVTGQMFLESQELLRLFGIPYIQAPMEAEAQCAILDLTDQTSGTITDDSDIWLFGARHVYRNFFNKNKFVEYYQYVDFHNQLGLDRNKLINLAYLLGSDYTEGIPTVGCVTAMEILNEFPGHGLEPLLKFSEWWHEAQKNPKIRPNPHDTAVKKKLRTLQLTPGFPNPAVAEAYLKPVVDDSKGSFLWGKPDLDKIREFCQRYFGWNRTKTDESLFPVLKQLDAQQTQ

XPGn3 R823A = biological target: T5, XPGn3 R823A (Homo sapiens, UniProt P28715 2-112+=GT+750-990, R823A;internal_change); test: EMSA; value from '~10% reduction'; EMSA: 2.5 uM DNA, 1-8 uM protein, buffer H (composition not in material) + 15% glycerol, 25 C, 30 min, 7% native PAGE; crystals: complex in 20 mM Tris pH 7.5, 100 mM KCl, grown in 5% PEG 3350, 50 mM sodium citrate pH 4.0, 22 C; conditions: protein: recombinant; tags: N-terminal His-TEV cleaved; fork: 12 bp duplex, 4 nt 5' arm (strand 1), 5 nt 3' arm (strand 2)
T5 sequence: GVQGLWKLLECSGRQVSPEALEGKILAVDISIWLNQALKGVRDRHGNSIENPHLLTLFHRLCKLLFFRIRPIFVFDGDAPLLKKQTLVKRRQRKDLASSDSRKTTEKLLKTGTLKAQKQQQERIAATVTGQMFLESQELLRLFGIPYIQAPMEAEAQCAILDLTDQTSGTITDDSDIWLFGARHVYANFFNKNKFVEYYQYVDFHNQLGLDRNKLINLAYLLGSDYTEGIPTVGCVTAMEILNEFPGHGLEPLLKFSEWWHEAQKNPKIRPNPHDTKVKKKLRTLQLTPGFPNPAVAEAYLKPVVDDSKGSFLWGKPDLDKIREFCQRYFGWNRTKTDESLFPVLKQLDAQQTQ

XPGn3 K972E = biological target: T6, XPGn3 K972E (Homo sapiens, UniProt P28715 2-112+=GT+750-990, K972E;internal_change); test: EMSA; only cleavage mildly lowered; EMSA: 2.5 uM DNA, 1-8 uM protein, buffer H (composition not in material) + 15% glycerol, 25 C, 30 min, 7% native PAGE; crystals: complex in 20 mM Tris pH 7.5, 100 mM KCl, grown in 5% PEG 3350, 50 mM sodium citrate pH 4.0, 22 C; conditions: protein: recombinant; tags: N-terminal His-TEV cleaved; fork: 12 bp duplex, 4 nt 5' arm (strand 1), 5 nt 3' arm (strand 2)
T6 sequence: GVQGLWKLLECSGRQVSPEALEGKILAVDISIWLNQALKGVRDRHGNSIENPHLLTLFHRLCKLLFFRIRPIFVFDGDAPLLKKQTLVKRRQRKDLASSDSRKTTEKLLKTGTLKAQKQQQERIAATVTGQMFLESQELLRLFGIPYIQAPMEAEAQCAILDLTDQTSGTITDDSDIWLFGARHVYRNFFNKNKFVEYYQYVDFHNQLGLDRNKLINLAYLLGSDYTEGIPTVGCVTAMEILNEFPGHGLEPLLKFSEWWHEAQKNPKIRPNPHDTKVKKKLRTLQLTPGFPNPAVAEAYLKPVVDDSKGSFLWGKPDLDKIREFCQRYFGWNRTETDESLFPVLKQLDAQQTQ

XPGn3 K828E = biological target: T7, XPGn3 K828E (Homo sapiens, UniProt P28715 2-112+=GT+750-990, K828E;internal_change); test: as above; conditions: protein: recombinant; tags: N-terminal His-TEV cleaved; fork: 12 bp duplex, 4 nt 5' arm (strand 1), 5 nt 3' arm (strand 2)
T7 sequence: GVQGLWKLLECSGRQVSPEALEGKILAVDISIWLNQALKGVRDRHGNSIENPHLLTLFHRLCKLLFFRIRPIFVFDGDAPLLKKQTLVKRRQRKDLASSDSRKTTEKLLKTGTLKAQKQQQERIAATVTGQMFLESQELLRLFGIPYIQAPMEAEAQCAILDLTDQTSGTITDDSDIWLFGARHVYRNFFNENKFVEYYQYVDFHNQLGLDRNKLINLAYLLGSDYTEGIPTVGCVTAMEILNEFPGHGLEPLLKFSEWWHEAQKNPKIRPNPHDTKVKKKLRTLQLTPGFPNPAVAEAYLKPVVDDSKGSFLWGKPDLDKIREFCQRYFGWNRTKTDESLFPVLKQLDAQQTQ

XPGn3 D812A = biological target: T8, XPGn3 D812A (Homo sapiens, UniProt P28715 2-112+=GT+750-990, D812A;internal_change); test: EMSA; no influence on binding; EMSA: 2.5 uM DNA, 1-8 uM protein, buffer H (composition not in material) + 15% glycerol, 25 C, 30 min, 7% native PAGE; crystals: complex in 20 mM Tris pH 7.5, 100 mM KCl, grown in 5% PEG 3350, 50 mM sodium citrate pH 4.0, 22 C; conditions: protein: recombinant; tags: N-terminal His-TEV cleaved; fork: 12 bp duplex, 4 nt 5' arm (strand 1), 5 nt 3' arm (strand 2)
T8 sequence: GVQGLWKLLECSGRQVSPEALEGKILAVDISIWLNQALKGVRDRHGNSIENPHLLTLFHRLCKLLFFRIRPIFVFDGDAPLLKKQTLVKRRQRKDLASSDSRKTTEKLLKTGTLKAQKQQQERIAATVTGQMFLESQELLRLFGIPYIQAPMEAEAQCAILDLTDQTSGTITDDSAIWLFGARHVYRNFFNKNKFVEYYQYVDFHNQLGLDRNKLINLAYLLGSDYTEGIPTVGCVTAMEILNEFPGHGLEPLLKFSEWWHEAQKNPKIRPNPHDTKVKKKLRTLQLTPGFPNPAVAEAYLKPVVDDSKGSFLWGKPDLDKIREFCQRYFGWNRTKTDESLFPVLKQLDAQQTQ

Binder | binding result (XPGn1 D812A) | binding result (XPGn3 K917E) | binding result (XPGn3 K916A) | binding result (XPGn3 K913A) | binding signal (XPGn3 R823A) | binding result (XPGn3 K972E) | binding result (XPGn3 K828E) | binding result (XPGn3 D812A)
DNA-1 splayed-arm (dsDNA) DNA 1: TTGCAGAGTTC DNA 2: GAACTCTGCAG | binds | – | – | – | – | – | – | –
DNA-2 splayed-arm (dsDNA) DNA 1: TACTTGCAGAGTTCGC DNA 2: GCGAACTCTGCAGAGCA | – | binds | binds | binds | ~90 % of wild-type binding | binds | binds | binds
